# Source: publication PMC3991886, “Characterization of single-stranded DNA-binding proteins from the psychrophilic bacteria Desulfotalea psychrophila, Flavobacterium psychrophilum, Psychrobacter arcticus, Psychrobacter cryohalolentis, Psychromonas ingrahamii, Psychroflexus torquis, and Photobacterium profundum” (BMC Microbiology, 2014)
# T1: PinSSB (Psychromonas ingrahamii 37 (DSM 17664), UniProt A1T012 1-1+=G+2-222, internal_change)
# T1 sequence: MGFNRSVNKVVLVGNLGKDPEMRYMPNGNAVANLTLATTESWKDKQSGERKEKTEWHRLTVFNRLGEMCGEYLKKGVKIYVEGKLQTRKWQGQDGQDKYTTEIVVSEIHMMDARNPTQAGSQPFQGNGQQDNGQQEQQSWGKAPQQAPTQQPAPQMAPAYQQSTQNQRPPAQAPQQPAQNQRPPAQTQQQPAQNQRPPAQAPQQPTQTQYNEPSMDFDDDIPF
# T2: PtoSSB (Psychroflexus torquis ATCC 700755 (LMG …, UniProt K4IS14 1-151))
# T2 sequence: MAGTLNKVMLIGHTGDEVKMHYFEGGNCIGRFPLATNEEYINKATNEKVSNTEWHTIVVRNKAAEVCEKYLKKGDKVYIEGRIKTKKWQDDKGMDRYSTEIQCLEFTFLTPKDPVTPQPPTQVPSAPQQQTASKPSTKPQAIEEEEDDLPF
# T3: PprSSB (Photobacterium profundum (LMG 19446), UniProt Q6LM83 5-187)
# T3 sequence: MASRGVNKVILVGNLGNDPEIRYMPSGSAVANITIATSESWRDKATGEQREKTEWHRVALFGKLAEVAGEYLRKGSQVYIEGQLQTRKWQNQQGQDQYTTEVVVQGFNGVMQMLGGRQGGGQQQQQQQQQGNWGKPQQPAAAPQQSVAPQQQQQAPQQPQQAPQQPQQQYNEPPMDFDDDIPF
# T4: PcrSSB (Psychrobacter cryohalolentis K5 (DSM …, UniProt Q1Q9B8 1-1+=G+2-219, internal_change))
# T4 sequence: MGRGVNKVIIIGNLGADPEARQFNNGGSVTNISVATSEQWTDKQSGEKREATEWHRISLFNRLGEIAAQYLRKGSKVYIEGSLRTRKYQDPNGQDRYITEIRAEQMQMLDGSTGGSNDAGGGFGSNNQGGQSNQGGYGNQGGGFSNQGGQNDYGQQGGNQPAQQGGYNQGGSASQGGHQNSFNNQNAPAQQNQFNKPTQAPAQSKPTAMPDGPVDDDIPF
# What was measured:
# [1] = target: Desulfotalea psychrophila single-stranded DNA-binding protein (Desulfotalea psychrophila); assay: cross-linking; 0.5% (v/v) glutaraldehyde, 15 min, 25°C, 10, 50 or 100 pmol SSB; quenched with 1 M Tris-HCl pH 8.0; SDS-PAGE (12%)
# [2] = target: Desulfotalea psychrophila single-stranded DNA-binding protein (Desulfotalea psychrophila); assay: SEC; analytical gel filtration, Superdex 200 10/300 GL, 20 mM Tris-HCl pH 7.5, 150 mM NaCl, 10 mM EDTA, 0.5 ml/min; mass from a regression curve of standard proteins
# [3] = target: Desulfotalea psychrophila single-stranded DNA-binding protein (Desulfotalea psychrophila); assay: sedimentation in glycerol gradient; linear 15 to 30% (w/v) glycerol gradients in 50 mM Tris-HCl pH 7.5, 0.5 M NaCl, 1 mM EDTA, 5 mM beta-mercaptoethanol; 50 ul of 300 uM SSB; SW 60 rotor, 46,000 rpm, 24 h, 4°C; fractions by SDS-PAGE; compared with standard proteins, EcoSSB and PhaSSB
# [4] = target: Photobacterium profundum single-stranded DNA-binding protein (Photobacterium profundum) (UniProt Q6LM83); assay: cross-linking; 0.5% (v/v) glutaraldehyde, 15 min, 25°C, 10, 50 or 100 pmol SSB; quenched with 1 M Tris-HCl pH 8.0; SDS-PAGE (12%)
# [5] = target: Photobacterium profundum single-stranded DNA-binding protein (Photobacterium profundum) (UniProt Q6LM83); assay: SEC; analytical gel filtration, Superdex 200 10/300 GL, 20 mM Tris-HCl pH 7.5, 150 mM NaCl, 10 mM EDTA, 0.5 ml/min; mass from a regression curve of standard proteins
# [6] = target: Photobacterium profundum single-stranded DNA-binding protein (Photobacterium profundum) (UniProt Q6LM83); assay: sedimentation in glycerol gradient; linear 15 to 30% (w/v) glycerol gradients in 50 mM Tris-HCl pH 7.5, 0.5 M NaCl, 1 mM EDTA, 5 mM beta-mercaptoethanol; 50 ul of 300 uM SSB; SW 60 rotor, 46,000 rpm, 24 h, 4°C; fractions by SDS-PAGE; compared with standard proteins, EcoSSB and PhaSSB
# [7] = target: Psychrobacter arcticus single-stranded DNA-binding protein (Psychrobacter arcticus) (UniProt Q4FR27); assay: cross-linking; 0.5% (v/v) glutaraldehyde, 15 min, 25°C, 10, 50 or 100 pmol SSB; quenched with 1 M Tris-HCl pH 8.0; SDS-PAGE (12%)
# [8] = target: Psychrobacter arcticus single-stranded DNA-binding protein (Psychrobacter arcticus) (UniProt Q4FR27); assay: SEC; analytical gel filtration, Superdex 200 10/300 GL, 20 mM Tris-HCl pH 7.5, 150 mM NaCl, 10 mM EDTA, 0.5 ml/min; mass from a regression curve of standard proteins
# [9] = target: Psychrobacter arcticus single-stranded DNA-binding protein (Psychrobacter arcticus) (UniProt Q4FR27); assay: sedimentation in glycerol gradient; linear 15 to 30% (w/v) glycerol gradients in 50 mM Tris-HCl pH 7.5, 0.5 M NaCl, 1 mM EDTA, 5 mM beta-mercaptoethanol; 50 ul of 300 uM SSB; SW 60 rotor, 46,000 rpm, 24 h, 4°C; fractions by SDS-PAGE; compared with standard proteins, EcoSSB and PhaSSB
# [10] = target: Psychrobacter cryohalolentis single-stranded DNA-binding protein (Psychrobacter cryohalolentis); assay: cross-linking; 0.5% (v/v) glutaraldehyde, 15 min, 25°C, 10, 50 or 100 pmol SSB; quenched with 1 M Tris-HCl pH 8.0; SDS-PAGE (12%)
# [11] = target: Psychrobacter cryohalolentis single-stranded DNA-binding protein (Psychrobacter cryohalolentis); assay: SEC; analytical gel filtration, Superdex 200 10/300 GL, 20 mM Tris-HCl pH 7.5, 150 mM NaCl, 10 mM EDTA, 0.5 ml/min; mass from a regression curve of standard proteins
# [12] = target: Psychrobacter cryohalolentis single-stranded DNA-binding protein (Psychrobacter cryohalolentis); assay: sedimentation in glycerol gradient; linear 15 to 30% (w/v) glycerol gradients in 50 mM Tris-HCl pH 7.5, 0.5 M NaCl, 1 mM EDTA, 5 mM beta-mercaptoethanol; 50 ul of 300 uM SSB; SW 60 rotor, 46,000 rpm, 24 h, 4°C; fractions by SDS-PAGE; compared with standard proteins, EcoSSB and PhaSSB
# [13] = target: Psychroflexus torquis single-stranded DNA-binding protein (Psychroflexus torquis); assay: cross-linking; 0.5% (v/v) glutaraldehyde, 15 min, 25°C, 10, 50 or 100 pmol SSB; quenched with 1 M Tris-HCl pH 8.0; SDS-PAGE (12%)
# [14] = target: Psychroflexus torquis single-stranded DNA-binding protein (Psychroflexus torquis); assay: SEC; analytical gel filtration, Superdex 200 10/300 GL, 20 mM Tris-HCl pH 7.5, 150 mM NaCl, 10 mM EDTA, 0.5 ml/min; mass from a regression curve of standard proteins
# [15] = target: Psychroflexus torquis single-stranded DNA-binding protein (Psychroflexus torquis); assay: sedimentation in glycerol gradient; linear 15 to 30% (w/v) glycerol gradients in 50 mM Tris-HCl pH 7.5, 0.5 M NaCl, 1 mM EDTA, 5 mM beta-mercaptoethanol; 50 ul of 300 uM SSB; SW 60 rotor, 46,000 rpm, 24 h, 4°C; fractions by SDS-PAGE; compared with standard proteins, EcoSSB and PhaSSB
# [16] = target: Psychromonas ingrahamii single-stranded DNA-binding protein (Psychromonas ingrahamii); assay: cross-linking; 0.5% (v/v) glutaraldehyde, 15 min, 25°C, 10, 50 or 100 pmol SSB; quenched with 1 M Tris-HCl pH 8.0; SDS-PAGE (12%)
# [17] = target: Psychromonas ingrahamii single-stranded DNA-binding protein (Psychromonas ingrahamii); assay: SEC; analytical gel filtration, Superdex 200 10/300 GL, 20 mM Tris-HCl pH 7.5, 150 mM NaCl, 10 mM EDTA, 0.5 ml/min; mass from a regression curve of standard proteins
# [18] = target: Psychromonas ingrahamii single-stranded DNA-binding protein (Psychromonas ingrahamii); assay: sedimentation in glycerol gradient; linear 15 to 30% (w/v) glycerol gradients in 50 mM Tris-HCl pH 7.5, 0.5 M NaCl, 1 mM EDTA, 5 mM beta-mercaptoethanol; 50 ul of 300 uM SSB; SW 60 rotor, 46,000 rpm, 24 h, 4°C; fractions by SDS-PAGE; compared with standard proteins, EcoSSB and PhaSSB
# [19] = tested on: DpsSSB (Desulfotalea psychrophila LSv54 (DSM 12343)); assay: fluorescence titration; settings: 2-300 mM NaCl, site size 31 ± 2 nt, EMSA: 20 mM Tris-HCl pH 8.0, 100 mM NaCl, 1 mM EDTA, 25 C, 2% agarose in TAE, fluorescence titration: 20 mM Tris-HCl pH 8.0, 1 mM EDTA, 2/100/300 mM NaCl
# PinSSB = target: T1, PinSSB; assay: EMSA; complex I only; EMSA: 20 mM Tris-HCl pH 8.0, 100 mM NaCl, 1 mM EDTA, 25 C, 2% agarose in TAE; fluorescence titration: 20 mM Tris-HCl pH 8.0, 1 mM EDTA, 2/100/300 mM NaCl, 25 C; settings: protein: recombinant; tags: none (stop codon in reverse primer); chain copies: 4; label: 5'-fluorescein
# PtoSSB = target: T2, PtoSSB; assay: as above; settings: protein: recombinant; tags: none (stop codon in reverse primer); chain copies: 4; label: 5'-fluorescein
# PprSSB = target: T3, PprSSB; assay: as above; settings: protein: recombinant; tags: none (stop codon in reverse primer); chain copies: 4; label: 5'-fluorescein
# PcrSSB = target: T4, PcrSSB; assay: as above; settings: protein: recombinant; tags: none (stop codon in reverse primer); chain copies: 4; label: 5'-fluorescein
# [20] = target: the molecule itself; assay: SEC; analytical gel filtration, Superdex 200 10/300 GL, 20 mM Tris-HCl pH 7.5, 150 mM NaCl, 10 mM EDTA, 0.5 ml/min; mass from a regression curve of standard proteins
# [21] = target: the molecule itself; assay: cross-linking; 0.5% (v/v) glutaraldehyde, 15 min, 25°C, 10, 50 or 100 pmol SSB; quenched with 1 M Tris-HCl pH 8.0; SDS-PAGE (12%)
molecule,measurement,setting,value
Desulfotalea psychrophila single-stranded DNA-binding protein (natural protein),stoichiometry N,[1],4
same,stoichiometry N,[2],3.8 mass monomer
same,stoichiometry N,[3],4
Photobacterium profundum single-stranded DNA-binding protein (from UniProt Q6LM83 1-187) (natural protein),stoichiometry N,[4],4
same,stoichiometry N (mass monomers),[5],4.2
same,stoichiometry N,[6],4
Psychrobacter arcticus single-stranded DNA-binding protein (from UniProt Q4FR27 1-213) (natural protein),stoichiometry N,[7],4
same,stoichiometry N (mass monomers),[8],4.1
same,stoichiometry N,[9],4
Psychrobacter cryohalolentis single-stranded DNA-binding protein (natural protein),stoichiometry N,[10],4
same,stoichiometry N (mass monomers),[11],4.1
same,stoichiometry N,[12],4
Psychroflexus torquis single-stranded DNA-binding protein (natural protein),stoichiometry N,[13],4
same,stoichiometry N (mass monomers),[14],4.2
same,stoichiometry N,[15],4
Psychromonas ingrahamii single-stranded DNA-binding protein (natural protein),stoichiometry N,[16],4
same,stoichiometry N (mass monomers),[17],4.1
same,stoichiometry N,[18],4
TTTTTTTTTTTTTTTTTTTTTTTTTTTTTTTTTTTTTTTTTTTTTTTTTTTTTTTTTTTTTTTTTTTTTTTTTTTT [(dT)76],binding signal (% Trp fluorescence quench at saturation),[19],93
TTTTTTTTTTTTTTTTTTTTTTTTTTTTTTTTTTT (ssDNA) [(dT)35],binding result,PinSSB,binds
same,binding result,PtoSSB,binds
same,binding result,PprSSB,binds
same,binding result,PcrSSB,binds
"Flavobacterium psychrophilum single-stranded DNA-binding protein (natural protein, SSB of Flavobacterium psychrophilum JIP02/86 (LMG 13180), 140 amino acid residues including the N-terminal methionine, 15.9 kDa monomer; Cloned in pBAD/myc-HisA between NcoI and HindIII; the reverse primer carries the gene's stop codon, so the vector's C-terminal myc-His tag is probably not on the protein (surmised); The forward primer has two G that are not complementary to the gene, which adds …) MGNGTLNKVMLIGHLGEDIKMHYFDGGNCIGRFPLATNEIYINKSTNEKITSTEWHNVVVRNKAAEICEKYLSKGDKIYVEGRIKSRQWQAEDGTVKYTTEIQVTEFTFLNTKKDSEIVKTASEAPKTTSFDSTVENDLPF",stoichiometry N,[20],4.4 mass monomer
same,stoichiometry N,[21],4
